This assay addresses SA2-SCC1 complex (SA2 80-1060 in complex with SCC1 281-420) (UniProt Q8N3U4). Description: ITC. (In general: Isothermal titration calorimetry measures the heat released or taken up as one component is titrated into another.)

SA2-SCC1 complex (SA2 80-1060 in complex with SCC1 281-420), sequence (Q8N3U4 80-1060, chain 1 of 2): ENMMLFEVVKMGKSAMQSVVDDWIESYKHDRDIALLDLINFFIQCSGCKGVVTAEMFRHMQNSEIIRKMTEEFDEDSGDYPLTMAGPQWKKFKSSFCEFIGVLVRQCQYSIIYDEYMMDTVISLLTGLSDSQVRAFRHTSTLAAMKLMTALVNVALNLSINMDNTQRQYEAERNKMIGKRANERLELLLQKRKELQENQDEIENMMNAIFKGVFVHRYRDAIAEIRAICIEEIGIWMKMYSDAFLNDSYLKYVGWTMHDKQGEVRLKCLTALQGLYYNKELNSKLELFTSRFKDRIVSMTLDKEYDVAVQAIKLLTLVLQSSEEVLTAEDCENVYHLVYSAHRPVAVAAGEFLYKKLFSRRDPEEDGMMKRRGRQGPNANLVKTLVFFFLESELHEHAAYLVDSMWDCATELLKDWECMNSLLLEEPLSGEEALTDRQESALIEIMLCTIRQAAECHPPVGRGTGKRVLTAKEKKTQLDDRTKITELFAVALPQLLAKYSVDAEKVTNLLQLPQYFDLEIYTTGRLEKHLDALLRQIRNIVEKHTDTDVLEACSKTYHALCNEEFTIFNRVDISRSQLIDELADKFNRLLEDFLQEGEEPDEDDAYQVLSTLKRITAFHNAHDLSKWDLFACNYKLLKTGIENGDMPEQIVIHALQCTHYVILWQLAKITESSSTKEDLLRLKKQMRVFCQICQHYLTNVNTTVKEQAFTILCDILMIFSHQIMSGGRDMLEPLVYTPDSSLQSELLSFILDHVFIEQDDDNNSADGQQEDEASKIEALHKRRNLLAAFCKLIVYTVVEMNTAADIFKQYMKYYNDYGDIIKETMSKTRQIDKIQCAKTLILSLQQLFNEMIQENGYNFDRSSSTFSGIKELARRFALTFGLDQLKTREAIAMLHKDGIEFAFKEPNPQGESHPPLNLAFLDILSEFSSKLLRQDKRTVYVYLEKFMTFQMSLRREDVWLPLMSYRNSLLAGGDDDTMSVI
SA2-SCC1 complex (SA2 80-1060 in complex with SCC1 281-420), sequence (O60216 281-420, chain 2 of 2, further chain): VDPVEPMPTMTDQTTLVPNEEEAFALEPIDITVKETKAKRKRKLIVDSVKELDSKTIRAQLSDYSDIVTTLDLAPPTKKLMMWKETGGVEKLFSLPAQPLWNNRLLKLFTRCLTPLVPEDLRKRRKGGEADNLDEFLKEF

With “Shugoshin (SGO1) peptide 331-341 (from UniProt Q5FBB7 331-341)”, the Kd – broadly, a measure of binding affinity in units of concentration – was 13.5 µM and the dH was -10.7 kcal/mol.

These data come from paper PMC7035113.
